In patent publication US20220406376A1 (MacroGenics, published 2022):

T1: 5T4 on the surface of target cells (JIMT-1, SKOV-3) (UniProt Q13641 32-420, limits assumed)
T1 construct: whole, on cells
T1 sequence (looked up): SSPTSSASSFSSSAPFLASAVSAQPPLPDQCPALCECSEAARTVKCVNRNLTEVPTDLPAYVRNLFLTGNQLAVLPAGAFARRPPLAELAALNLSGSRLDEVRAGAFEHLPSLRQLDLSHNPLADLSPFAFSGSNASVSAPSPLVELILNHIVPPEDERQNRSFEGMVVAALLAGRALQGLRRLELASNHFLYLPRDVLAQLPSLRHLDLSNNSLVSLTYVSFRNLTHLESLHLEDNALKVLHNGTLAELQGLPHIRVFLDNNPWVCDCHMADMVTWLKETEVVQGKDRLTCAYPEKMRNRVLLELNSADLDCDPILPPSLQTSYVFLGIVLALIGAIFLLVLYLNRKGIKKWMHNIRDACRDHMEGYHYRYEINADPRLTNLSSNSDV


What was measured:
[1] = molecular target: T1, 5T4 on the surface of target cells …; experiment: flow cytometry on SKOV-3 (5T4 lo) cells, anti-hFc APC MFI
[2] = molecular target: T2, CD137 on the surface of cells (activated human T cells; engineered CHO cells) (human, UniProt Q07011 24-255); experiment: flow cytometry on activated CD8+ T cells (donor D59788, CD8 FITC), anti-hFc APC MFI
T2 construct: whole, on cells; also called human CD137; cell surface expressed CD137
T2 sequence (Q07011 24-255, change not shown): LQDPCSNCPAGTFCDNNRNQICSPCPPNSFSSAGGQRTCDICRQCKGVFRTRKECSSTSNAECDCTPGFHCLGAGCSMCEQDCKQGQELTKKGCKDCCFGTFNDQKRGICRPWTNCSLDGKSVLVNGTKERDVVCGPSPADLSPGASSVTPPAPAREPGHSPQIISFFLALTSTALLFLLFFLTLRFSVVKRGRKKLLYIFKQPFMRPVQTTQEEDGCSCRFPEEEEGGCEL

[3] = molecular target: T1, 5T4 on the surface of target cells …; experiment: flow cytometry on JIMT-1 (5T4 hi) cells, anti-hFc APC MFI
[4] = molecular target: T2, CD137 on the surface of cells …; experiment: flow cytometry on activated pan T cells gated CD8+ (donor D43867), anti-hFc APC MFI
Experimental: Three antibodies were selected for further study. For such evaluations, purified pan T-cells (see above) were stimulated with anti-CD3/CD28 beads (cells:beads=1:1) for 72 hours in the presence of IL-2 (100 U/mL). 100 μL of activated T cells (1.0×10⁶ cells/mL) and 100 μL of serially diluted (5- or 10-fold dilutions) test article (antibody or bispecific diabody) was added to each well of microtiter assay plate(s), mixed and incubated at RT for 45 min. The cells were washed with FACS Buffer and secondary antibody (anti-human-Fc region-APC) was then added to each well; mixed and incubated at RT for 30 min. Cells were then washed FACS Buffer and T cell surface marker antibodies (anti-CD4 labeled with V510, and anti-CD8 labeled with FITC) were then added to each well; mixed and incubated at RT for 30 min. Cells were washed and resuspended in 100 μL FACS Buffer and analyzed by flow cytometry (BD LSR Fortessa or FACSCanto 11) for cell event collection. Data analysis were performed via FloJo v10.

Row | Binder | EC50 (read off the curve) [1] [µg/mL] | EC50 (read off the curve) [2] [µg/mL] | EC50 (read off the curve) [3] [µg/mL] | EC50 (read off the curve) [4] [µg/mL]
1 | TRIDENT-B2 (bispecific antibody, human IgG1, kappa, L234A L235A) chain 1: DIQMTQSPSSLSASVGDRVTITCRPSQDISNYLNWYQQKPDKTVKLLIYYTSRLRSGVPSRFSGSGSGTDFTFTISSLQPEDIATYFCQQGDTLPYTFGQGTKLEIKGGGSGGGGQVQLVQSGAEVKKPGASVKVSCKASGYTFTSYWINWVKQAPGQGLEWIGNIYPSDSYTNYNQKFKDKATITADKSTSTAYMELSSLRSEDTAVYYCTRDYGSAYSMSTWGQGTTVTVSSASTKGEVAACEKEVAALEKEVAALEKEVAALEKGGGDKTHTCPPCPAPEAAGGPSVFLFPPKPKDTLMISRTPEVTCVVVDVSHEDPEVKFNWYVDGVEVHNAKTKPREEQYNSTYRVVSVLTVLHQDWLNGKEYKCKVSNKALPAPIEKTISKAKGQPREPQVYTLPPSREEMTKNQVSLWCLVKGFYPSDIAVEWESNGQPENNYKTTPPVLDSDGSFFLYSKLTVDKSRWQQGNVFSCSVMHEALHNHYTQKSLSLSPGK chain 2: DIQMTQSPSSLSASVGDRVTITCRPSQDISNYLNWYQQKPDKTVKLLIYYTSRLRSGVPSRFSGSGSGTDFTFTISSLQPEDIATYFCQQGDTLPYTFGQGTKLEIKGGGSGGGGQVQLVQSGAEVKKPGASVKVSCKASGYTFTSYWINWVKQAPGQGLEWIGNIYPSDSYTNYNQKFKDKATITADKSTSTAYMELSSLRSEDTAVYYCTRDYGSAYSMSTWGQGTTVTVSSASTKGKVAACKEKVAALKEKVAALKEKVAALKE heavy: QVQLVQSGAEVKKPGASVKVSCKASGYTFTSFWMHWVRQAPGQGLEWMGRIDPNRGGTEYNEKAKSRVTMTADKSTSTAYMELSSLRSEDTAVYYCAGGNPYYPMDYWGQGTTVTVSSASTKGPSVFPLAPSSKSTSGGTAALGCLVKDYFPEPVTVSWNSGALTSGVHTFPAVLQSSGLYSLSSVVTVPSSSLGTQTYICNVNHKPSNTKVDKRVEPKSCDKTHTCPPCPAPEAAGGPSVFLFPPKPKDTLMISRTPEVTCVVVDVSHEDPEVKFNWYVDGVEVHNAKTKPREEQYNSTYRVVSVLTVLHQDWLNGKEYKCKVSNKALPAPIEKTISKAKGQPREPQVYTLPPSREEMTKNQVSLSCAVKGFYPSDIAVEWESNGQPENNYKTTPPVLDSDGSFFLVSKLTVDKSRWQQGNVFSCSVMHEALHNRYTQKSLSLSPGK light: DIQMTQSPSSLSASVGDRVTITCRASQGISNYLAWFQQKPGKAPKSLIYRANRLQSGVPSRFSGSGSGTDFTLTISSLQPEDVATYYCLQYDDFPWTFGQGTKLEIKRTVAAPSVFIFPPSDEQLKSGTASVVCLLNNFYPREAKVQWKVDNALQSGNSQESVTEQDSKDSTYSLSSTLTLSKADYEKHKVYACEVTHQGLSSPVTKSFNRGEC | ~0.04 | ~0.007 | ~0.08 | 
2 | TRIDENT-3 (other) chain 1: DIQMTQSPSTLSASVGDRVTITCRASQSVGYMHWYQQKPGKAPKLLIYDTSKLASGVPSRFSGSGSGTEFTLTISSLQPDDFATYYCFQGSGYPFTFGGGTKLEIKGGGSGGGGEVKLDETGGGLVQPGRPMKLSCVASGFTFSDYWMNWVRQSPEKGLEWVAQIRNKPYNYETYYSDSVKGRFTISRDDSKSSVYLQMNNLRVEDMGIYYCTGSYYGMDYWGQGTSVTVSSASTKGEVAACEKEVAALEKEVAALEKEVAALEKGGGDKTHTCPPCPAPEAAGGPSVFLFPPKPKDTLMISRTPEVTCVVVDVSHEDPEVKFNWYVDGVEVHNAKTKPREEQYNSTYRVVSVLTVLHQDWLNGKEYKCKVSNKALPAPIEKTISKAKGQPREPQVYTLPPSREEMTKNQVSLWCLVKGFYPSDIAVEWESNGQPENNYKTTPPVLDSDGSFFLYSKLTVDKSRWQQGNVFSCSVMHEALHNHYTQKSLSLSPGK chain 2: DVVMTQTPFSLPVSLGDQASISCRSSQSLVHSNGNTYLRWYLQKPGQSPKVLIYKVSNRFSGVPDRFSGSGSGTDFTLKISRVEAEDLGVYFCSQSTHVPWTFGGGTKLEIKGGGSGGGGQVTLRESGPALVKPTQTLTLTCTFSGFSLSTSGMSVGWIRQPPGKALEWLADIWWDDKKDYNPSLKSRLTISKDTSKNQVVLKVTNMDPADTATYYCARSMITNWYFDVWGAGTTVTVSSASTKGKVAACKEKVAALKEKVAALKEKVAALKE heavy: QVQLVQSGAEVKKPGASVKVSCKASGYTFTSFWMHWVRQAPGQGLEWMGRIDPNRGGTEYNEKAKSRVTMTADKSTSTAYMELSSLRSEDTAVYYCAGGNPYYPMDYWGQGTTVTVSSASTKGPSVFPLAPSSKSTSGGTAALGCLVKDYFPEPVTVSWNSGALTSGVHTFPAVLQSSGLYSLSSVVTVPSSSLGTQTYICNVNHKPSNTKVDKRVEPKSCDKTHTCPPCPAPEAAGGPSVFLFPPKPKDTLMISRTPEVTCVVVDVSHEDPEVKFNWYVDGVEVHNAKTKPREEQYNSTYRVVSVLTVLHQDWLNGKEYKCKVSNKALPAPIEKTISKAKGQPREPQVYTLPPSREEMTKNQVSLSCAVKGFYPSDIAVEWESNGQPENNYKTTPPVLDSDGSFFLVSKLTVDKSRWQQGNVFSCSVMHEALHNRYTQKSLSLSPGK light: DIQMTQSPSSLSASVGDRVTITCRASQGISNYLAWFQQKPGKAPKSLIYRANRLQSGVPSRFSGSGSGTDFTLTISSLQPEDVATYYCLQYDDFPWTFGQGTKLEIKRTVAAPSVFIFPPSDEQLKSGTASVVCLLNNFYPREAKVQWKVDNALQSGNSQESVTEQDSKDSTYSLSSTLTLSKADYEKHKVYACEVTHQGLSSPVTKSFNRGEC | ~0.04 |  | ~0.08 | 
3 | TRIDENT-B5 (bispecific antibody, human IgG1, kappa, L234A L235A, also called TRIDENT-BS) chain 1: DIQMTQSPSSLSASVGDRVTITCQASQDISNYLNWYQQKPDKTVKLLIYYTGRARSGVPSRFSGSGSGTDFTFTISSLQPEDIATYFCQQGDTLPYTFGQGTKLEIKGGGSGGGGQVQLVQSGAEVKKPGASVKVSCKASGYTFTSYWINWVRQAPGQGLEWIGNIYPSDSYTNYNQKFKDKATITADKSTSTAYMELSSLRSEDTAVYYCTRDYGSAYSMSTWGQGTTVTVSSASTKGEVAACEKEVAALEKEVAALEKEVAALEKGGGDKTHTCPPCPAPEAAGGPSVFLFPPKPKDTLMISRTPEVTCVVVDVSHEDPEVKFNWYVDGVEVHNAKTKPREEQYNSTYRVVSVLTVLHQDWLNGKEYKCKVSNKALPAPIEKTISKAKGQPREPQVYTLPPSREEMTKNQVSLWCLVKGFYPSDIAVEWESNGQPENNYKTTPPVLDSDGSFFLYSKLTVDKSRWQQGNVFSCSVMHEALHNHYTQKSLSLSPGK chain 2: DIQMTQSPSSLSASVGDRVTITCQASQDISNYLNWYQQKPDKTVKLLIYYTGRARSGVPSRFSGSGSGTDFTFTISSLQPEDIATYFCQQGDTLPYTFGQGTKLEIKGGGSGGGGQVQLVQSGAEVKKPGASVKVSCKASGYTFTSYWINWVRQAPGQGLEWIGNIYPSDSYTNYNQKFKDKATITADKSTSTAYMELSSLRSEDTAVYYCTRDYGSAYSMSTWGQGTTVTVSSASTKGKVAACKEKVAALKEKVAALKEKVAALKE heavy: QVQLVQSGAEVKKPGASVKVSCKASGYTFTSFWMHWVRQAPGQGLEWMGRIDPNRGGTEYNEKAKSRVTMTADKSTSTAYMELSSLRSEDTAVYYCAGGNPYYPMDYWGQGTTVTVSSASTKGPSVFPLAPSSKSTSGGTAALGCLVKDYFPEPVTVSWNSGALTSGVHTFPAVLQSSGLYSLSSVVTVPSSSLGTQTYICNVNHKPSNTKVDKRVEPKSCDKTHTCPPCPAPEAAGGPSVFLFPPKPKDTLMISRTPEVTCVVVDVSHEDPEVKFNWYVDGVEVHNAKTKPREEQYNSTYRVVSVLTVLHQDWLNGKEYKCKVSNKALPAPIEKTISKAKGQPREPQVYTLPPSREEMTKNQVSLSCAVKGFYPSDIAVEWESNGQPENNYKTTPPVLDSDGSFFLVSKLTVDKSRWQQGNVFSCSVMHEALHNRYTQKSLSLSPGK light: DIQMTQSPSSLSASVGDRVTITCRASQGISNYLAWFQQKPGKAPKSLIYRANRLQSGVPSRFSGSGSGTDFTLTISSLQPEDVATYYCLQYDDFPWTFGQGTKLEIKRTVAAPSVFIFPPSDEQLKSGTASVVCLLNNFYPREAKVQWKVDNALQSGNSQESVTEQDSKDSTYSLSSTLTLSKADYEKHKVYACEVTHQGLSSPVTKSFNRGEC | ~0.04 | ~0.007 | ~0.08 | 
4 | hCD137 MAB-3 (1B.3) (antibody, V domains shown) VH: QVQLVQSGAEVKKPGASVKVSCKASGYTFTSYWINWVKQAPGQGLEWIGNIYPSDSYTNYNQKFKDKATITADKSTSTAYMELSSLRSEDTAVYYCTRDYGSAYSMSTWGQGTTVTVSS VL: DIQMTQSPSSLSASVGDRVTITCRPSQDISNYLNWYQQKPDKTVKLLIYYTSRLRSGVPSRFSGSGSGTDFTFTISSLQPEDIATYFCQQGDTLPYTFGQGTKLEIK |  |  |  | ~0.007
